T1: human DLL3 (Delta-like ligand 3) (human, UniProt Q9NYJ7 27-618)
T1 construct: endogenous on SHP-77 cells; also called cell-surface DLL3
T1 sequence: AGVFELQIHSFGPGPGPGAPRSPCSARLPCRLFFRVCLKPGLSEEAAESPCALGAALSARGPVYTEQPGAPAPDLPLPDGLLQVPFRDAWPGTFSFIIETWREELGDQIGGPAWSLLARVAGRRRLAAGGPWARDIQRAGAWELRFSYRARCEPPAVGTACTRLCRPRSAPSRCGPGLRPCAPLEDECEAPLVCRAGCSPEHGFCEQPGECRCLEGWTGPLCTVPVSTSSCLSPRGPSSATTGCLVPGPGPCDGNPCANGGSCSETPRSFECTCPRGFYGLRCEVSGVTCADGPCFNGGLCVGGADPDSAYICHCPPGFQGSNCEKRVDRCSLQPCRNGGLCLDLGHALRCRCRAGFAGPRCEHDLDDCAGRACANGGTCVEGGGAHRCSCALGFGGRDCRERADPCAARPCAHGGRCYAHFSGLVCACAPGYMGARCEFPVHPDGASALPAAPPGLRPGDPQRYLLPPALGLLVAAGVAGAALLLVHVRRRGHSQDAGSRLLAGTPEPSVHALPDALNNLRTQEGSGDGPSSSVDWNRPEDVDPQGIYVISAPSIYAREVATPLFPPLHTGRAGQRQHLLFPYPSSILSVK


How the values were obtained:
[1] = target: T1, human DLL3 (Delta-like ligand 3); test: flow cytometry, sdAb-Fc titrated on SHP-77 cells (DLL3 positive), APC anti-human Fc secondary
Method: (§1) Specificity and relative affinity were assessed for purified sdAb-Fcs on DLL3-expressing cells. […] A titration series of the fusion protein was incubated with the DLL3-expressing cell lines (approximately 2.5×10⁴ to 5×10⁴ cells/well) for 30 minutes at 4 degrees Celsius in FACS Buffer (PBS 1% BSA, 0.1% NaN₃ pH 7.4) in 96-well plates. Following three wash steps in FACS buffer, an APC-conjugated anti-human Fcγ specific secondary antibody (Jackson ImmunoResearch) was added and incubated for 30 minutes at 4 degrees Celsius. Following three additional wash steps in FACS buffer bound antibody was detected via flow cytometry (IQue Intellicyte).

[2] = target: T1, human DLL3 (Delta-like ligand 3); test: flow cytometry, sdAb-Fc titrated on 293FS cells transfected with DLL3 (panel title DLL3-FL), APC anti-human Fc secondary
Method: FIGS. 2A-L set forth a series of graphs depicting the ability of sdAb and humanized variants thereof targeting DLL3 to bind cell surface DLL3.
as §1

[3] = target: T1, human DLL3 (Delta-like ligand 3); test: flow cytometry, SHP-77 cells
[4] = target: T1, human DLL3 (Delta-like ligand 3); test: flow cytometry, SHP-77 cells; remark: listed apart in the source
Method: (§2) Binding of exemplary DLL3-targeting constrained CD3 engaging constructs of the disclosure, referred to herein as cx4720, cx3715, cx4422, cx3708, cx4052, cx3985, cx4059, cx4087, cx4088, cx4895, cx3991, cx3711, cx4887, cx4896, cx4899, cx4406, cx3707, cx3710, cx4888 and cx4890, to CD3 on the surface of primary T cells was assessed via flow cytometry (SONY SA3800 spectral analyzer) using T-cell that were negatively enriched from PBMCs isolated from healthy human donor leukopaks. Representative DLL3-targeting constrained CD3 engaging constructs were assessed for binding to T cells and DLL3 expressing cells (SHP-77). Bound cx4720, cx3715, cx4422, cx3708, cx4052, cx3985, cx4059, cx4087, cx4088, cx4895, cx3991, cx3711, cx4887, cx4896, cx4899, cx4406, cx3707, cx3710, cx4888 and cx4890 was detected with fluorophore-conjugated secondary antibodies specific for the human Fc and binding was measured by flow cytometry. Cells incubated with secondary antibody only served as negative controls.
(§3) Table E4 summarizes the affinity of exemplary molecules for DLL3 or CD3, as determined from flow cytometry, in these studies.

[5] = target: T2, CD3 on the surface of T cells (human, UniProt P07766 23-207); test: flow cytometry, primary human T cells
T2 construct: whole, on cells; multi-chain complex; also called CD3 epsilon
Method: as §2, §3

T2 sequence (P07766 23-207): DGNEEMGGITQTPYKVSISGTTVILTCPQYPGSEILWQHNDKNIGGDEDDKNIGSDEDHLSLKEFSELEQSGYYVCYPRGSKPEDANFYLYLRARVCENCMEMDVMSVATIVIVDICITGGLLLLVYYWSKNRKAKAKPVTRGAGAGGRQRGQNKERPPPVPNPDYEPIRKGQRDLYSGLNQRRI

| binding result [1] | binding result [2] | Binder | other results |
| --- | --- | --- | --- |
| binds |  | 6B4 (Fc fusion, tested as VHH-human Fc; Fc not specified) VHH: QVTLRESGGGLVQAGGSLRLSCGASEITLSDKTVGWYRQAPGKQRVLVAVISNVDSTNYAHSVKGRFTISRDNAKNTVYLQMNSLKPEDTAVYYCYARDFEAEYWGQGTLVTVKP |  |
| binds |  | L6F1 (Fc fusion, tested as VHH-human Fc; Fc not specified) VHH: QVQLVQSGGGLVQAGGSLRLSCGASEIIFSDKTVGWYRQAPGKQRVLVAVISNVDSTNYAQSVKGRFTISRDNAKNTVYLQMNSLKPEDTAVYYCYARDFESEYWGRGTQVTVKP |  |
| binds |  | L10D9 (Fc fusion, tested as VHH-human Fc) VHH: EVQLVQSGGGLVQAGGSLRLSCAASGSILSINAMGWYRQPPGKQREMVAGFTGDGNTIYADSVKGRFTISRDNAKNTVYLQMNSLKPEDTAVYYCAADVQLFSRDYEFYWGQGTQVTVKP |  |
|  | binds | hz8E7v5 (Fc fusion, tested as VHH-human Fc; Fc not specified) VHH: EVQLVESGGGEVQPGGSLRLSCGPSEIITSDKSVGWWRQAPGKQRNLVAGISNVGSTNYAQSVKGRFTISRDNAKNTVYLQMSSLRAEDTAVYYCYARDFENEYWGQGTLVTVKP |  |
| binds |  | 3B12 (Fc fusion, tested as VHH-human Fc; Fc not specified) VHH: QVQLQESGGGLVQSGGSLRLSCAASGFSLDDYTIGWFRQAPGKEREGVSCISSSGGSTYYADSVKGRFTISRDNAENTVYLQMNSLKPEDTAVYYCATYCPVTIADELGFDYWGQGTLVTVKP |  |

The next lines start with the binder.

| Binder | binding result [1] | binding result [2] | other results |
| --- | --- | --- | --- |
| L5A8 (Fc fusion, tested as VHH-human Fc; Fc not specified) VHH: QVQLVQSGGGLVQAGESLRLSCAASGSIFSINAMGWYRQVLGKQRELVAVVSSDGRTTVAPSVKGRFTISRDNAKNTVSLQMNSLKPEDTGVYYCGVREWYSDSDWRDYEGQGTQVTVKP |  |  | EC50 (read off the curve) [2]: ~10 nM |
| hz8E7v8 (Fc fusion, tested as VHH-human Fc; Fc not specified) VHH: EVQLVESGGGEVQPGGSLRLSCGPSEIITSDKSVGWYRQAPGKQRNLVAGISNVGSTNYAQSVKGRFTISRDNAKNTLYLQMSSLRAEDTAVYYCYARDFENEYWGQGTLVTVKP |  | binds |  |
| hz8E7v11 (Fc fusion, tested as VHH-human Fc; Fc not specified) VHH: EVQLVESGGGEVQPGGSLRLSCGPSEIITSDKSVGWFRQAPGKQRNLVAGISNVGSTNYAQSVKGRFTISRDNAKNTLYLQMSSLRAEDTAVYYCYARDFENEYWGQGTLVTVKP |  | binds |  |
| hz8E7v9 (Fc fusion, tested as VHH-human Fc; Fc not specified) VHH: EVQLVESGGGEVQPGGSLRLSCGPSEIITSDKSVGWVRQAPGKQRNLVAGISNVGSTNYAQSVKGRFTISRDNAKNTLYLQMSSLRAEDTAVYYCYARDFENEYWGQGTLVTVKP |  | binds |  |
| hz8E7v6 (Fc fusion, tested as VHH-human Fc; Fc not specified) VHH: EVQLVESGGGEVQPGGSLRLSCGPSEIIFSDKSVGWWRQAPGKQRNLVAGISNVGSTNYAQSVKGRFTISRDNAKNTLYLQMSSLRAEDTAVYYCYARDFENEYWGQGTLVTVKP |  | binds |  |
| hz8E7v10 (Fc fusion, tested as VHH-human Fc; Fc not specified) VHH: EVQLVESGGGEVQPGGSLRLSCGPSEIITSDKSVGWWRQAPGKQRELVAGISNVGSTNYAQSVKGRFTISRDNAKNTLYLQMSSLRAEDTAVYYCYARDFENEYWGQGTLVTVKP |  | binds |  |
| L8E7 (Fc fusion, tested as VHH-human Fc; Fc not specified) VHH: EVQLQESGGGLVQAGGSLRLSCGPSEIITSDKSVGWWRQAPGKQRNLVAGISNVGSTNYAQSVKGRFTISRDNAKNTLFLQMNSLKPEDTAVYYCYARDFENEYWGRGTQVTVKP | binds |  |  |
| hz5A8v5 (Fc fusion, tested as VHH-human Fc; Fc not specified) VHH: EVQLVESGGGEVQPGGSLRLSCAASGSIFSINAMGWYRQAPGKQRELVAVVSSDGRTTVAPSVKGRFTISRDNAKNTVYLQMSSLRAEDTGVYYCGVREWYSDSDWRDYEGQGTLVTVKP |  |  | EC50 (read off the curve) [2]: ~3 nM |
| hz5A8v12 (Fc fusion, tested as VHH-human Fc; Fc not specified) VHH: EVQLVESGGGEVQAGGSLRLSCAASGSIFSINAMGWYRQAPGKQRELVAVVSSDGRTTVAPSVKGRFTISRDNAKNTVYLQMSSLRAEDTAVYYCGVREWYSDSDWRDYEGQGTLVTVKP |  |  | binding result [3]: binds |
| 3B4 (Fc fusion, tested as VHH-human Fc; Fc not specified) VHH: QVQLQQSGGGLVQAGGSLRLSCAASGSDFSINAMGWYRQGELVAGFTGDGNPIYADSVKGRFTISRGNAENTVSLQMNSLKPEDTAVYYCAADVKIGGDYEWYWGQGTQVTVKP |  |  | EC50 (read off the curve) [1]: ~0.06 nM |
| cx4896 (bispecific antibody, also carries a 41BB sdAb) chain 1: EVQLVESGGGEVQPGGSLRLSCAASGSIFSINAMGWYRQAPGKQRELVAGFTGDTNTIYAESVKGRFTISRDNAKNTVYLQMSSLRAEDTAVYYCAADVQLFSRDYEFYWGQGTLVTVKPDKTHTCPPCPAPGGPSVFLFPPKPKDTLMISRTPEVTCVVVDVSHEDPEVKFNWYVDGVEVHNAKTKPREEQYNSTYRVVSVLTVLHQDWLNGKEYKCKVSNKALPAPIEKTISKAKGQPREPQVYTLPPCRDELTKNQVSLWCLVKGFYPSDIAVEWESNGQPENNYKTTPPVLDSDGSFFLYSKLTVDKSRWQQGNVFSCSVMHEALHNHYTQKSLSLSPTGGGGGSGGGGGSGGGGGSEVQLVESGGGLVQPGGSLRLSCAASGFTFNTYAMNWVRQAPGKCLEWVARIRSKYNNYATYYADSVKGRFTISRDDAKNTLYLQMSSLRAEDTAVYYCVRHGNFGNSYVSWFAYWGQGTLVTVKPEVQLVESGGGEVQPGGSLRLSCGPSEIITSDKSVGWWRQAPGKQRNLVAGISNVGSTNYAQSVKGRFTISRDNAKNTLYLQMSSLRAEDTAVYYCYARDFENEYWGQGTLVTVKP chain 2: DKTHTCPPCPAPGGPSVFLFPPKPKDTLMISRTPEVTCVVVDVSHEDPEVKFNWYVDGVEVHNAKTKPREEQYNSTYRVVSVLTVLHQDWLNGKEYKCKVSNKALPAPIEKTISKAKGQPREPQVCTLPPSRDELTKNQVSLSCAVKGFYPSDIAVEWESNGQPENNYKTTPPVLDSDGSFFLVSKLTVDKSRWQQGNVFSCSVMHEALHNRYTQKSLSLSPTGGGGGSGGGGGSGGGGGSQAVVTQEPSLTVSPGGTVTLTCGSSTGAVTTSNYANWVQQKPGQAFRGLIGGTNKRAPGVPARFSGSLLGGKAALTISGAQPEDEADYYCALWYSNHWVFGCGTKLEIKEVQLLESGGGEVQPGGSLRLSCAASGFSFSINAMGWYRQAPGKRREFVAAIESGRNTVYAESVKGRFTISRDNAKNTVYLQMSSLRAEDTAVYYCGLLKGNRVVSPSVAYWGQGTLVTVKP |  |  | Kd [4]: 0.339 nM; Kd [5]: > 200 nM |

Reference: US20210380679A1 (INHIBRX BIOSCIENCES, published 2021)
